Results from PMC12370899, “Promiscuous and multivalent interactions between Eps15 and partner protein Dab2 generate a complex interaction network” (Nature Communications, 2025).

T1: Eps15IDR (Eps15's own intrinsically disordered region) (human, UniProt P42566 481-896)
T1 construct: Eps15, UniProt P42566, C-terminal intrinsically disordered region; limits 481-896 from the N-terminal residues 481-521, the overlapping stretches 481-581 to 761-896 and the primer names Eps15_481_Nde1_fw and Eps15_896_Not1_rv; in pET28-6His-GB1; 15N-labelled where it was the observed protein; source: E. coli Rosetta (DE3), purified (nickel column, TEV cleavage, SEC); not shown: 6His, N-terminal, …
T1 sequence (looked up): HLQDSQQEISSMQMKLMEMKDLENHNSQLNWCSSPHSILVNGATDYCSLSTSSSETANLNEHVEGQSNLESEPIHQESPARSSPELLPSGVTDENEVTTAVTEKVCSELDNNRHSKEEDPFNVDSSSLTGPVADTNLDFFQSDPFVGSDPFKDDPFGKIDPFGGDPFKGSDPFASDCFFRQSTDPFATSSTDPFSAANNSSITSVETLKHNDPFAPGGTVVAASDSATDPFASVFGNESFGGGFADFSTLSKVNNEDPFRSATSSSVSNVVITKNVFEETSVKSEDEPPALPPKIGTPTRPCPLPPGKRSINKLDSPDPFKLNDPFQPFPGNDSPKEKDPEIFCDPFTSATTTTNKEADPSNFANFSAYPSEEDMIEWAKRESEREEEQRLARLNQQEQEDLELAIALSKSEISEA

B1: Dab2_(320–495) (domain or fragment, UniProt P98082 320-495, looked up)
chain: KKENSSSSSTPLSNGPLNGDVDYFGQQFDQISNRTGKQEAQAGPWPFSSSQTQPAVRTQNGVSEREQNGFSVKSSPNPFVGSPPKGLSIQNGVKQDLESSVQSSPHDSIAIIPPPQSTKPGRGRRTAKSSANDLLASDIFAPPVSEPSGQASPTGQPTALQPNPLDLFKTSAPAPV
notes: gene bought from Twist Bioscience, in pET28a; 15N-labelled where it was the observed protein; The S328C mutant was used only for microscopy of droplets and is not written; also called Dab2 fragment; source: E. coli Rosetta (DE3), purified (nickel column, SEC); not shown: His-tag, C-terminal, kept
B2: Eps15 EH2 domain (domain or fragment, human, UniProt P42566 121-215, looked up)
chain: PWAVKPEDKAKYDAIFDSLSPVNGFLSGDKVKPVLLNSKLPVDILGRVWELSDIDHDGMLDRDEFAVAMFLVYCALEKEPVPMSLPPALVPPSKR
notes: Eps15, UniProt P42566, second EH domain; in pET41c; The NdeI primer puts a start methionine before P121; non-cleavable C-terminal His-tag from pET41c; 15N-labelled where it was the observed protein; source: E. coli Rosetta (DE3), purified (nickel column, SEC); not shown: His-tag, C-terminal, kept
B3: Eps15 EH123 (EH1-EH2-EH3, the full EH-domain containing region) (domain or fragment, human, UniProt P42566 1-310, looked up)
chain: MAAAAQLSLTQLSSGNPVYEKYYRQVDTGNTGRVLASDAAAFLKKSGLPDLILGKIWDLADTDGKGILNKQEFFVALRLVACAQNGLEVSLSSLNLAVPPPRFHDTSSPLLISGTSAAELPWAVKPEDKAKYDAIFDSLSPVNGFLSGDKVKPVLLNSKLPVDILGRVWELSDIDHDGMLDRDEFAVAMFLVYCALEKEPVPMSLPPALVPPSKRKTWVVSPAEKAKYDEIFLKTDKDMDGFVSGLEVREIFLKTGLPSTLLAHIWSLCDTKDCGKLSKDQFALAFHLISQKLIKGIDPPHVLTPEMIPP
notes: Eps15, UniProt P42566, the three N-terminal EH domains in row; in pET28-6His-GB1; 15N-labelled where it was the observed protein; source: E. coli Rosetta (DE3), purified (nickel column, TEV cleavage, SEC); not shown: 6His, N-terminal, cleaved; GB1, N-terminal, cleaved

Assays:
Conditions in all cases: both partners purified
[1] = biological target: B3; experiment: NMR titration; competition: equimolar EH123, Eps15IDR and Dab2(320-495) together, observed in turn on 15N EH123, 15N Eps15IDR and 15N Dab2(320-495); NMR buffer pH 6, 25 °C
[2] = biological target: B1; experiment: NMR CPMG relaxation dispersion; 100 µM 15N Dab2(320-495) with 10 µM (10%) EH2; 600 and 900 MHz; 12 residues of helixN and the NPF motif fitted globally, two-site exchange model (ChemEx); NMR buffer pH 6, 25 °C
[3] = biological target: T1, Eps15IDR (Eps15's own intrinsically …); experiment: NMR titration; equimolar unlabelled Eps15IDR (200 µM) added to 200 µM 15N EH123; 1H-15N TROSY-HSQC CSPs and R1rho at 1200 MHz; NMR buffer pH 6, 25 °C

## B1
[1]
  binding result: binds

## B2
[2]
  Kd: 196 µM

## B3
[3]
  binding result: binds
